Reference: patent US20150259426A1 (Novartis, published 2015)

T1: hGITR (human, UniProt Q9Y5U5)
T1 construct: extracellular domain, E. coli lysate captured on a His capture plate; Target named only on the sheet; the construct is not described in the text
T1 sequence (extracellular domain, looked up): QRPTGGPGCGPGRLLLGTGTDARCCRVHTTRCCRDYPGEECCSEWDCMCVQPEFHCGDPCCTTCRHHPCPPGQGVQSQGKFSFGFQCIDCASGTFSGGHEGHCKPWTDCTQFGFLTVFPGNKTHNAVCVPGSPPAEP

T2: DcR2 extracellular domain (TNFRSF10D, Thr57-Thr198) (UniProt Q9UBN6 57-198)
T2 construct: range 57-198; ECD cloned into pBadThioTopo; E. coli lysate on His capture plates
T2 sequence (looked up): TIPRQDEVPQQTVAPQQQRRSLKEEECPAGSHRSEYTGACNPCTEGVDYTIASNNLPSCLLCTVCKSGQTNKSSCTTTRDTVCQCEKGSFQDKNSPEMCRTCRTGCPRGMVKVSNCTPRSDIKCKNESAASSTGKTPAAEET

T3: TNFR1 extracellular domain (TNFRSF1A, Leu34-Thr211) (UniProt P19438 34-211)
T3 construct: range 34-211; ECD cloned into pBadThioTopo; E. coli lysate on His capture plates
T3 sequence (looked up): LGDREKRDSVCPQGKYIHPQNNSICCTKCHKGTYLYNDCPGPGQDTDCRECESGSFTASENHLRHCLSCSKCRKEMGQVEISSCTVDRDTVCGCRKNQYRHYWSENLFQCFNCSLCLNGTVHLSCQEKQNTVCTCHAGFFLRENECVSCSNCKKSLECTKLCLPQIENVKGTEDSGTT

T4: FAS extracellular domain (TNFRSF6, Ser20-Gly175) (UniProt P25445 20-175)
T4 construct: ECD cloned into pBadThioTopo; E. coli lysate on His capture plates
T4 sequence (looked up): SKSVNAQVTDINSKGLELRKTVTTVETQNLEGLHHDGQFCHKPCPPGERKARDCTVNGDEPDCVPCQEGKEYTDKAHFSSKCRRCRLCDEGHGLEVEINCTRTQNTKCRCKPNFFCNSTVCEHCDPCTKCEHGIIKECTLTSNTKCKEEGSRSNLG

T5: OX40 extracellular domain (TNFRSF4, Gly33-Gly212) (UniProt P43489 33-212)
T5 construct: ECD cloned into pBadThioTopo; E. coli lysate on His capture plates
T5 sequence (looked up): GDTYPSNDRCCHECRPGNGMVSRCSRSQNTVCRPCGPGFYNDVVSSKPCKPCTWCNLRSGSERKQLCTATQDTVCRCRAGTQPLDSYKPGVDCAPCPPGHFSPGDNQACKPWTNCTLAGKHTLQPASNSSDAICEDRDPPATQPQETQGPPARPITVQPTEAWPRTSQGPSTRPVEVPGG

T6: OPG (TNFRSF11B, Lys17-Ile197) (UniProt O00300 17-197)
T6 construct: range 17-197; ECD cloned into pBadThioTopo; E. coli lysate on His capture plates
T6 sequence (looked up): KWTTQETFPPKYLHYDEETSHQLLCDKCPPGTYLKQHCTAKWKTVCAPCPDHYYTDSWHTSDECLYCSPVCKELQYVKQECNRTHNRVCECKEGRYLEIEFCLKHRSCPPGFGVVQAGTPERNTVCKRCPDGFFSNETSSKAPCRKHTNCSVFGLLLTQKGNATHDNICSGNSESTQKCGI

T7: DcR3 (TNFRSF6B, Val27-Ala176) (UniProt O95407 27-176)
T7 construct: range 27-176; ECD cloned into pBadThioTopo; E. coli lysate on His capture plates
T7 sequence (looked up): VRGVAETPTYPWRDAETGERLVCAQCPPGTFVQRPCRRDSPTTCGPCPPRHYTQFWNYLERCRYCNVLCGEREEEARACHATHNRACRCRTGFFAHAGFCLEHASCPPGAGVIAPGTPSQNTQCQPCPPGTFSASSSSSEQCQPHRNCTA

B1: 7A12 tri (trivalent anti-DR5 NB construct) (VHH)
chain: EVQLVESGGGLVQAGGSLRLSCAASGRTFSNYAMGWFRQAPGKEREFVAALNWSGGSTYYVDSVKGRFTISRDNAKNTVYLQMNSLKPEDTAVYYCAAAGSFSLGGRPYGDDYWGKGTLVTVSSGGGGSGGGGSGGGGSGGGGSGGGGSGGGGSGGGGSEVQLVESGGGLVQAGGSLRLSCAASGRTFSNYAMGWFRQAPGKEREFVAALNWSGGSTYYVDSVKGRFTISRDNAKNTVYLQMNSLKPEDTAVYYCAAAGSFSLGGRPYGDDYWGKGTLVTVSSGGGGSGGGGSGGGGSGGGGSGGGGSGGGGSGGGGSEVQLVESGGGLVQAGGSLRLSCAASGRTFSNYAMGWFRQAPGKEREFVAALNWSGGSTYYVDSVKGRFTISRDNAKNTVYLQMNSLKPEDTAVYYCAAAGSFSLGGRPYGDDYWGKGTLVTVSS
notes: three VHH units in one chain joined by GlySer linkers; not shown: CMYC-HIS6 tag
B2: 11D1 tri (trivalent anti-DR5 NB construct) (VHH)
chain: EVQLVESGGGLVQPGGSLRLSCAASGSIDSINNMGWYRQAPGKQRELVAEITPRGRTNYADSEKSRFTISRDNAKRTVNLQMNSLKPEDTAVYYCNAEVRERGTSWYRPDYWGQGTQVTVSSGGGGSGGGGSGGGGSGGGGSGGGGSGGGGSGGGGSEVQLVESGGGLVQPGGSLRLSCAASGSIDSINNMGWYRQAPGKQRELVAEITPRGRTNYADSEKSRFTISRDNAKRTVNLQMNSLKPEDTAVYYCNAEVRERGTSWYRPDYWGQGTQVTVSSGGGGSGGGGSGGGGSGGGGSGGGGSGGGGSGGGGSEVQLVESGGGLVQPGGSLRLSCAASGSIDSINNMGWYRQAPGKQRELVAEITPRGRTNYADSEKSRFTISRDNAKRTVNLQMNSLKPEDTAVYYCNAEVRERGTSWYRPDYWGQGTQVTVSS
notes: as for B1

Legend:
hGITR = biological target: T1, hGITR; assay: ELISA, receptor ECD from E. coli lysate on His capture plate;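 further: binding specificity screen across TNF receptor superfamily ectodomains, anti-V5 detection as expression reference, primary antibody incubation 1 h at room temperature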
[1] = biological target: T8, CD27 extracellular domain (TNFRSF7, Thr21-Ser187) (UniProt P26842 21-187); assay: as above
T8 construct: range 21-187; ECD cloned into pBadThioTopo; E. coli lysate on His capture plates

[2] = biological target: T2, DcR2 extracellular domain (TNFRSF10D, …); assay: as above
[3] = biological target: T3, TNFR1 extracellular domain (TNFRSF1A, …); assay: as above
[4] = biological target: T4, FAS extracellular domain (TNFRSF6, …); assay: as above
[5] = biological target: T5, OX40 extracellular domain (TNFRSF4, …); assay: as above
[6] = biological target: T9, BAFFR extracellular domain (TNFRSF13C, Met1-Gly64) (UniProt Q96RJ3 1-64); assay: as above
T9 construct: range 1-64; ECD cloned into pBadThioTopo; E. coli lysate on His capture plates

[7] = biological target: T6, OPG (TNFRSF11B, Lys17-Ile197); assay: as above
[8] = biological target: T10, TNFR3 extracellular domain (TNFRSF3, Pro30-Thr224) (UniProt P36941 30-224); assay: as above
T10 construct: range 30-224; ECD cloned into pBadThioTopo; E. coli lysate on His capture plates

[9] = biological target: T7, DcR3 (TNFRSF6B, Val27-Ala176); assay: as above
[10] = biological target: T11, CD40 extracellular domain (TNFRSF5, Val18-Leu192) (UniProt P25942 18-192); assay: as above
T11 construct: range 18-192; ECD cloned into pBadThioTopo; E. coli lysate on His capture plates

[11] = biological target: T12, CD137 extracellular domain (TNFRSF9, Glu19-Ile188) (UniProt Q07011 19-188); assay: as above
T12 construct: range 19-188; ECD cloned into pBadThioTopo; E. coli lysate on His capture plates

[12] = biological target: T13, cell-bound human DR5 (Colo205 and other human cell lines) (human, UniProt O14763 56-440); assay: cell-based or functional assay
[13] = biological target: cynomolgus DR5-Fc fusion protein (cyno DR5 amino acids 56 to 213 fused with human IgG1 Fc) (cynomolgus; human); assay: SPR (Biacore), CM5 chip coated with cynomolgus DR5-Fc, 1 to 100 nM NB construct
[14] = biological target: T13, cell-bound human DR5 (Colo205 and other …); assay: cell-based or functional assay; remark: listed apart in the source

T8 sequence (P26842 21-187 limits assumed): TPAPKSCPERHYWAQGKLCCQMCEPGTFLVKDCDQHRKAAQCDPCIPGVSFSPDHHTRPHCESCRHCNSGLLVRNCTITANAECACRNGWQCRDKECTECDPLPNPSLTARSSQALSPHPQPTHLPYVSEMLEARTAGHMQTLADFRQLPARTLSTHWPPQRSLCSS
T10 sequence (P36941 30-224 limits assumed): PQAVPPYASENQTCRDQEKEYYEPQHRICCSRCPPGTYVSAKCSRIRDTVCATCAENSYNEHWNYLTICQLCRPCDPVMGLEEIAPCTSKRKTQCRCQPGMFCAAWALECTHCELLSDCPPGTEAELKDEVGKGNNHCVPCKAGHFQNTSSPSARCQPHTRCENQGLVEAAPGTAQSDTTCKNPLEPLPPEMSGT
T11 sequence (P25942 18-192 limits assumed): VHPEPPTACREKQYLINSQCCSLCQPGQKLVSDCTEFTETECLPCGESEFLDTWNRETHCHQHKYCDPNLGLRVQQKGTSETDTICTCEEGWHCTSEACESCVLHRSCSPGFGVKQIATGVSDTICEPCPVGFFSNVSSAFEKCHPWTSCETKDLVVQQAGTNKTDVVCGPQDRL
T12 sequence (Q07011 19-188 limits assumed): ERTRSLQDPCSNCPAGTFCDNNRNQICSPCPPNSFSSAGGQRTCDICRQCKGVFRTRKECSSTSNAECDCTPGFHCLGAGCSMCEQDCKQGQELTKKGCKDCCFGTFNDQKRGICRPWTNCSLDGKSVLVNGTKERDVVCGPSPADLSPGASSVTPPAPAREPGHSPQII
T9 sequence (Q96RJ3 1-64 limits assumed): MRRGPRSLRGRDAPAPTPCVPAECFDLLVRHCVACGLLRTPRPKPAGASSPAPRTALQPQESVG

Row | Binder | binding result (hGITR) | binding result [1] | binding result [2] | binding result [3] | binding result [4] | binding result [5] | binding result [6] | binding result [7] | binding result [8] | binding result [9] | binding result [10] | binding result [11] | IC50, cell survival, Colo205 [12] | Kd [13] | IC50, cell survival, A549 [14] | IC50, cell survival, ARPE-19 [14] | IC50, cell survival, H226 [14] | IC50, cell survival, H2052 [14] | IC50, cell survival, H2122 [14] | IC50, cell survival, Huvec [14] | also measured
1 | B1 | no binding (tested: not stated) | no binding (tested: not stated) | no binding (tested: not stated) | no binding (tested: not stated) | no binding (tested: not stated) | no binding (tested: not stated) | no binding (tested: not stated) | no binding (tested: not stated) | no binding (tested: not stated) | no binding (tested: not stated) | no binding (tested: not stated) | no binding (tested: not stated) | 0.12 nM | < 0.03 nM | ≥ 20 nM | ≥ 20 nM | 0.03 nM | 0.064 nM | 0.008 nM | ≥ 20 nM | IC50, cell survival, IMR-90 [14]: ≥ 20 nM; IC50, cell survival, Jurkat [14]: ≥ 20 nM; IC50, cell survival, M30 [14]: ≥ 20 nM; IC50, cell survival, MiaPaCa-2 [14]: ≥ 20 nM; IC50, cell survival, Molt4 [14]: ≥ 20 nM; IC50, cell survival, Panc-1 [14]: ≥ 20 nM
2 | B2 | no binding (tested: not stated) | no binding (tested: not stated) | no binding (tested: not stated) | no binding (tested: not stated) | no binding (tested: not stated) | no binding (tested: not stated) | no binding (tested: not stated) | no binding (tested: not stated) | no binding (tested: not stated) | no binding (tested: not stated) | no binding (tested: not stated) | no binding (tested: not stated) | 0.111 nM | < 0.2 nM | ≥ 20 nM | ≥ 20 nM | 0.03 nM | 0.015 nM | 0.004 nM | ≥ 20 nM | IC50, cell survival, IMR-90 [14]: ≥ 20 nM; IC50, cell survival, Jurkat [14]: ≥ 20 nM; IC50, cell survival, M30 [14]: ≥ 20 nM; IC50, cell survival, MiaPaCa-2 [14]: ≥ 20 nM; IC50, cell survival, Molt4 [14]: ≥ 20 nM; IC50, cell survival, Panc-1 [14]: ≥ 20 nM
